Values quoted from earlier work as cited in article PMC2757418.

Target: netrin-1 (UniProt O95631)

- Kd: 10 nM
Substance: DCC (from UniProt P43146)
